From patent publication EP2322204A1

Target: LRP1 receptor on human astrocytoma 1321N1 cells (human) (UniProt Q07954)
Test: cell-based or functional assay

UniProt Q07954, sequence (Q07954 20-4544): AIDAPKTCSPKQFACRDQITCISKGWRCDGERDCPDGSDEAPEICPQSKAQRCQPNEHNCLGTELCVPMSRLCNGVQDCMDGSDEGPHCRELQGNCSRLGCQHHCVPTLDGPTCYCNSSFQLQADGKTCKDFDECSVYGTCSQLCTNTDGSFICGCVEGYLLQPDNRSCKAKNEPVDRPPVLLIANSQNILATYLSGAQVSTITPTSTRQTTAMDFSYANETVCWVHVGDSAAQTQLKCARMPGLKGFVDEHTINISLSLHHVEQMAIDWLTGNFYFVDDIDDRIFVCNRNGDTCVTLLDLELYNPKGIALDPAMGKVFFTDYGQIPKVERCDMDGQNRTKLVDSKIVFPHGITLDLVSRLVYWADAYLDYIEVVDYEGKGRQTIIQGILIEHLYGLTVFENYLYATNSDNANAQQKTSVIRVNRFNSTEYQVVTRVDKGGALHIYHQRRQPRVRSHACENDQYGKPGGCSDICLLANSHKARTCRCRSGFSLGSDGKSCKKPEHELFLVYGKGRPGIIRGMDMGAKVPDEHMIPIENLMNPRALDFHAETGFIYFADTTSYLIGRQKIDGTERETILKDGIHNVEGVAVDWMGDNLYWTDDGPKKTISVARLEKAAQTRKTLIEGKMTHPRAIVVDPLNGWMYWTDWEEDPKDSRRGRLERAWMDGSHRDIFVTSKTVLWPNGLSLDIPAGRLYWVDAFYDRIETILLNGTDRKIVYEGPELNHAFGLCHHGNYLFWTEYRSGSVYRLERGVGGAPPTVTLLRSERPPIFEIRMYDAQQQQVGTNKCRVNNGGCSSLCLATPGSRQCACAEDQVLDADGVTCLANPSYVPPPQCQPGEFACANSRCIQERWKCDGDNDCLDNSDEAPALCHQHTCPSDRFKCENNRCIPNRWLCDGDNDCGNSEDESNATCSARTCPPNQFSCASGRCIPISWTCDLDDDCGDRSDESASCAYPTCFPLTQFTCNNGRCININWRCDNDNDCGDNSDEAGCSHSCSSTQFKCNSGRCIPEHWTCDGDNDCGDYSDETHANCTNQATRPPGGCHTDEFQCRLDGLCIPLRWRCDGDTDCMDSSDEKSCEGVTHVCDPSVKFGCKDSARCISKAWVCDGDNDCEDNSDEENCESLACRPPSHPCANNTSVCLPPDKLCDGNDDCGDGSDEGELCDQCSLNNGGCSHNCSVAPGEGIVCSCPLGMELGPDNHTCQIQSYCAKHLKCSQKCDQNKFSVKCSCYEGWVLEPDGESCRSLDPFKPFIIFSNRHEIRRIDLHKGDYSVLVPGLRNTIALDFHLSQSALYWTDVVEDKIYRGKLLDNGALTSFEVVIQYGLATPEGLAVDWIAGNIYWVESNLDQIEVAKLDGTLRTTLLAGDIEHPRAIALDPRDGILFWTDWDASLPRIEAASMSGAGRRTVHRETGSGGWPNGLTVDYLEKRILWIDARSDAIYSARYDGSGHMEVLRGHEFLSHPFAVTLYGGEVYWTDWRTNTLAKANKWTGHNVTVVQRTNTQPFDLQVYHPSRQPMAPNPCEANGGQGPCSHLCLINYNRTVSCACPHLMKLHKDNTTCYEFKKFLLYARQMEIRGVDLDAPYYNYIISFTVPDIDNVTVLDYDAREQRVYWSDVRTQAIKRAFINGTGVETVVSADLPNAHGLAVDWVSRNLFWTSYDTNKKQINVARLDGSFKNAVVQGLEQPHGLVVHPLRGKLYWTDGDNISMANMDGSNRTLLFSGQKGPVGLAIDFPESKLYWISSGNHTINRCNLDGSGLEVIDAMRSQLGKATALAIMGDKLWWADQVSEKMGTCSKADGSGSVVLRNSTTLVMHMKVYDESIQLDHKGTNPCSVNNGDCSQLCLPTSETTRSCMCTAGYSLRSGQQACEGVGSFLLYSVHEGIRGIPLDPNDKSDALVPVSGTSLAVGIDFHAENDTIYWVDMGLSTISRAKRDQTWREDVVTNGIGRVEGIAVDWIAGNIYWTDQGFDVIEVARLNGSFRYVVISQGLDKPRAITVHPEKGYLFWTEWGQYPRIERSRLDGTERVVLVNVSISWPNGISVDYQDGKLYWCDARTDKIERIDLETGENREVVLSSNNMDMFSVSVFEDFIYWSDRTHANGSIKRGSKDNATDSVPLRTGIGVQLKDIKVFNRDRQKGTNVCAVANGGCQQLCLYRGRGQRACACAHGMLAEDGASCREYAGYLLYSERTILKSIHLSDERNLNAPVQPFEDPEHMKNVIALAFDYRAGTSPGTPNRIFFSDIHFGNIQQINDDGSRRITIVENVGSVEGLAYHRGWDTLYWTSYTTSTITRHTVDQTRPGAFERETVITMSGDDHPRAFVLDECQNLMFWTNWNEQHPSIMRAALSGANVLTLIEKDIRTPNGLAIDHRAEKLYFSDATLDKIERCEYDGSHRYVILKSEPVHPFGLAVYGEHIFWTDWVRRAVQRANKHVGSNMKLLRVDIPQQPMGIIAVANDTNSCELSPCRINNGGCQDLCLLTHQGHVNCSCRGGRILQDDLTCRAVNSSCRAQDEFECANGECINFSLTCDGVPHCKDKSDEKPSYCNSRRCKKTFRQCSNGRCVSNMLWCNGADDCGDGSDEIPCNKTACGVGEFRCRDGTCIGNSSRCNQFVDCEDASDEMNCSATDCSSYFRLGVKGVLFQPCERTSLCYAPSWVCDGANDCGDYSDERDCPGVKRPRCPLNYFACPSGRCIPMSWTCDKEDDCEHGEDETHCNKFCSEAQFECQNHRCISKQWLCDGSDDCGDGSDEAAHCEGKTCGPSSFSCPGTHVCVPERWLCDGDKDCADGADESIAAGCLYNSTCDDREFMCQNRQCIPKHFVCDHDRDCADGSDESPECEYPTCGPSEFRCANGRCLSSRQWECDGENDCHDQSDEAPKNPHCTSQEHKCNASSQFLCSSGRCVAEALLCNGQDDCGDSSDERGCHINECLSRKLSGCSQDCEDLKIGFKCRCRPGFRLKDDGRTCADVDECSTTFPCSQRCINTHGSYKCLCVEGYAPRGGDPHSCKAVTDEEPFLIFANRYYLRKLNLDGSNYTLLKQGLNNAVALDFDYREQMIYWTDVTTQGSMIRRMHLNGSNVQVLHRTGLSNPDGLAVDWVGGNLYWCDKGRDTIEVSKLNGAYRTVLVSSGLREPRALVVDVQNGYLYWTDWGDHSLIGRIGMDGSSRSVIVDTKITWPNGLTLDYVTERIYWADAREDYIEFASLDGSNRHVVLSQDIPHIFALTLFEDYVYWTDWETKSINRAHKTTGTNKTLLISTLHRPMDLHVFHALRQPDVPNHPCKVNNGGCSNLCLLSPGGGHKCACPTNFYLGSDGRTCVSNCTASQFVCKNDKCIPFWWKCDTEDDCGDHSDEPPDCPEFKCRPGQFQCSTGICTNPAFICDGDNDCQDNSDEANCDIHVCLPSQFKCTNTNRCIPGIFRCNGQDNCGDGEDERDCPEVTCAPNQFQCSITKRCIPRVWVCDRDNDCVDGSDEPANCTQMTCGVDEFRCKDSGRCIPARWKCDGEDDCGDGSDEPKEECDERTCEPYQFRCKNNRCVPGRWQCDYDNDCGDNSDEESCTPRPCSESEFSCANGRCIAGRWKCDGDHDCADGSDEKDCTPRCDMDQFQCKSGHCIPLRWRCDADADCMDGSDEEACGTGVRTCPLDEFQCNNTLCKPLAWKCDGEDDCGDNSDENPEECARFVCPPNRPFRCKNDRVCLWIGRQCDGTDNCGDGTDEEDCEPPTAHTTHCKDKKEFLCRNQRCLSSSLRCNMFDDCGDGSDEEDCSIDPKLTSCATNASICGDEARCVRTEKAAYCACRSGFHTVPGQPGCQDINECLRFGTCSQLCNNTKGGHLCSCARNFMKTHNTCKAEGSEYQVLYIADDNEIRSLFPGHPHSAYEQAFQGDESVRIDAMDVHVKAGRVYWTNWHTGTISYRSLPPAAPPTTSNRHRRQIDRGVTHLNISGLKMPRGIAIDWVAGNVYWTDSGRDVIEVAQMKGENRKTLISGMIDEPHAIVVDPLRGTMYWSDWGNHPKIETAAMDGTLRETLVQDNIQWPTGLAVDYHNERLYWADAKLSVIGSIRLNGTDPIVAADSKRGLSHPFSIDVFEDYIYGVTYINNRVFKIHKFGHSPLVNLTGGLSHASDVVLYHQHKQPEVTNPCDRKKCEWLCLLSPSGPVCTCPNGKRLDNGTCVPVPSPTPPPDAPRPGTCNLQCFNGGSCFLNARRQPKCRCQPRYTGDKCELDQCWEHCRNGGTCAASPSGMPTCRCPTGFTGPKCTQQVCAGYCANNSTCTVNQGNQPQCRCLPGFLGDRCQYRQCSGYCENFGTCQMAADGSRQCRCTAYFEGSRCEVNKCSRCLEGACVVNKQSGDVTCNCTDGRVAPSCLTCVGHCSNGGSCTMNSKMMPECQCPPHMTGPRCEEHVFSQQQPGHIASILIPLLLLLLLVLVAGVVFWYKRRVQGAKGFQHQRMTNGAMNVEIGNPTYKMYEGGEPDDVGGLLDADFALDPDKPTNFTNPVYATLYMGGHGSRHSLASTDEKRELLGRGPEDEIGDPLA

decrease in colony formation in soft agar (anchorage-independent growth), 1321N1 cells: > 50%
Substance: methylamine-transformed A2M* (activated alpha-2-macroglobulin) (from UniProt P01023 24-1474) (ligand)
